B1: antizyme inhibitor: human antizyme inhibitor, binds antizyme and releases ODC; full-length clone from human liver cDNA, expressed in yeast (protein, UniProt O14977 1-448, looked up)
chain: MKGFIDDANYSVGLLDEGTNLGNVIDNYVYEHTLTGKNAFFVGDLGKIVKKHSQWQNVVAQIKPFYTVKCNSAPAVLEILAALGTGFACSSKNEMALVQELGVPPENIIYISPCKQVSQIKYAAKVGVNILTCDNEIELKKIARNHPNAKVLLHIATEDNIGGEEGNMKFGTTLKNCRHLLECAKELDVQIIGVKFHVSSACKESQVYVHALSDARCVFDMAGEIGFTMNMLDIGGGFTGTEFQLEEVNHVISPLLDIYFPEGSGVKIISEPGSYYVSSAFTLAVNIIAKKVVENDKFPSGVEKTGSDEPAFMYYMNDGVYGSFASKLSEDLNTIPEVHKKYKEDEPLFTSSLWGPSCDELDQIVESCLLPELNVGDWLIFDNMGADSFHEPSAFNDFQRPAIYYMMSFSDWYEMQDAGITSDSMMKNFFFVPSCIQLSQEDSFSAEA
modifications: full-length
notes: full-length clone from human liver cDNA, expressed in yeast
B2: antizyme 3: human ODC antizyme 3 (Acc. No. AF175296), expressed in yeast from plasmid (protein, UniProt Q9UMX2 1-235, looked up)
Ornithine decarboxylase …: MPCKRCRPSVYSLSYIKRGKTRNYLYPIWSPYAYYLYCYKYRITLREKMLPRCYKSITYKEEEDLTLQPRSCLQCSESLVGLQEGKSTEQGNHDQLKELYSAGNLTVLATDPLLHQDPVQLDFHFRLTSQTSAHWHGLLCDRRLFLDIPYQALDQGNRESLTATLEYVEEKTNVDSVFVNFQNDRNDRGALLRAFSYMGFEVVRPDHPALPPLDNVIFMVYPLERDVGHLPSEPP
B3: antizyme 2: human ODC antizyme 2 (Acc. No. AF057297), expressed in yeast from plasmid (protein, UniProt O95190 1-189, looked up)
Ornithine decarboxylase …: MINTQDSSILPLSNCPQLQCCRHIVPGPLWCSDAPHPLSKIPGGRGGGRDPSLSALIYKDEKLTVTQDLPVNDGKPHIVHFQYEVTEVKVSSWDAVLSSQSLFVEIPDGLLADGSKEGLLALLEFAEEKMKVNYVFICFRKGREDRAPLLKTFSFLGFEIVRPGHPCVPSRPDVMFMVYPLDQNLSDED

Tests used:
[1] = system: ornithine decarboxylase (ODC); assay: Antizyme assay: spot test growth of ODC-knockout yeast complemented with human ODC on polyamine-free medium; type: cell-based; conditions: for inhibition of ODC activity (growth inhibition of the yeast cells): antizyme expressed from yeast promoters ADH, GaI1 or GPD in Y15034 with p413GaIL-ODC, PFSC plate, 30° C.
Sequence of ornithine decarboxylase (ODC) (P11926 whole entry): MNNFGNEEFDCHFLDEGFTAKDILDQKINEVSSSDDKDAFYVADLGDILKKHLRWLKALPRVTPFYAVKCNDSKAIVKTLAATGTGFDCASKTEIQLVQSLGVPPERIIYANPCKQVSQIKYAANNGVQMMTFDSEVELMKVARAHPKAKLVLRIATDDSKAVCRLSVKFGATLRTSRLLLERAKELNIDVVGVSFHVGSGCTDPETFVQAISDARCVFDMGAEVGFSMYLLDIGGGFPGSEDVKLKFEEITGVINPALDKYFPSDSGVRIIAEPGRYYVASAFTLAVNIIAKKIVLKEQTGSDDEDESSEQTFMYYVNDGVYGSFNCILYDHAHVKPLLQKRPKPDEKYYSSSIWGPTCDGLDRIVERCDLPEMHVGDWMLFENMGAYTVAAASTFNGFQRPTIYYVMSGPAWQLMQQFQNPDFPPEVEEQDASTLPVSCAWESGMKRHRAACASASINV
Protocol: The polyamine-dependent yeast strain Y15034 (ODC-knockout) and the corresponding wild-type strain Y10000 were each transformed by the Li acetate method with the plasmid p413GaIL-ODC. In addition, each of the 12 antizyme expression plasmids described in Example 2 and, as control, corresponding blank plasmids were cotransformed.
The transformants were plated out on Synthetic Complete (SC) medium (His-, Ura-,2% glucose, Difco). For each transformation, an overnight culture was inoculated in PFSC medium (His-, Ura-, 2% glucose). This was used firstly to carry out a spot test, i.e. the yeasts were adjusted to OD600 3.0 and subjected to 10-fold dilutions (5×). 2 μl of each dilution, starting with OD600 3.0, were placed as a drop on a PFSC plate (His-, Ura-, 2% galactose/raffinose [1:1]), and the plates were incubated at 30° C.

[2] = system: antizyme; assay: Antizyme inhibitor assay: spot test growth of yeast co-expressing ODC, antizyme and AZI on polyamine-free medium; type: cell-based, human; conditions: AZI expressed from ADH, GaIL or GPD promoter (p415); PFSC plate, 30° C.
Protocol: The yeasts prepared in Example 6 were each additionally cotransformed with the 3 AZI expression plasmids (p415ADH-AZI, p415GaIL-AZI and p415GPD-AZI) described in Example 3 and with the corresponding blank plasmids.
The transformants were plated out on Synthetic Complete (SC) medium (His-, Ura-,Leu-, 2% glucose). For each transformation, an overnight culture was inoculated in PFSC medium (His-, Ura-, Leu-, 2% glucose). This was used firstly to carry out a spot test, i.e. the yeasts were adjusted to OD600 3.0 and subjected to 10-fold dilutions (5×). 2 μl of each dilution, starting with an OD600 3.0 were placed as a drop on a PFSC plate (His-, Ura-, Leu-, 2% galactose/raffinose [1:1]), and the plates were incubated at 30° C.

Molecule	inhibition of ODC activity (growth inhibition of the yeast cells) [1]	also measured
NCCCCN [putrescine, reference compound]	–	abolition of the antizyme-related growth inhibition ([1]; addition of putrescine to polyamine-free medium): abolish the growth inhibition
Antizyme 1: human ODC antizyme 1 (Acc. No. D87914), protein that binds and inhibits ODC, expressed in yeast from plasmid	achieved inhibition of ODC activity only with the strong GPD promoter	–
B1	–	abolition of the ODC inhibition caused by antizyme [2]: the ODC inhibition caused by antizyme was abolished
B2	also by the GaI1 promoter	–
B3	effective inhibition of ODC activity was made possible also by the ADH promoter	–

Source: patent US20030165811A1, “Method for determining the activity of ornithine decarboxylase and for identifying effectors of ornithine decarboxylase activity” (priority 2001, published 2003)
